Assay results as given in patent US20230287082A1 (published 2023).

Experiments:
[1] = molecular target: NKp30 on human NK cells (human) (UniProt O14931); experiment: cell-based or functional assay
human NKp30 (human) [2] = molecular target: human NKp30 (human) (UniProt O14931); experiment: BLI, ratio to ΔB7-H6_wt
human NKp30 (human) [3] = molecular target: human NKp30 (human) (UniProt O14931); experiment: BLI, immunoligand on anti-hFc tip

NKp30 on human NK cells (human), sequence (O14931 19-201): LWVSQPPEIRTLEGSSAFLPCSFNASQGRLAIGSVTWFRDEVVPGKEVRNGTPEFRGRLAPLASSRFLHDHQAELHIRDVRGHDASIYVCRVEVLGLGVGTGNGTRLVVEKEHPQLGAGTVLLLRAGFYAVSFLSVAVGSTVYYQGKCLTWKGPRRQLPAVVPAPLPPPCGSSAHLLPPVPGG
human NKp30 (human), sequence (O14931 19-135 limits assumed): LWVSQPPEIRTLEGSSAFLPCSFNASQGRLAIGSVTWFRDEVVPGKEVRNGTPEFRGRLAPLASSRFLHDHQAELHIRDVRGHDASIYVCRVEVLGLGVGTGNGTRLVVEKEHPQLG

| Binder | A431 EC50 with PBMC (pM) [1] [pM] | A549 EC50 with PBMC (pM) [1] [pM] | EC50 (pM), A431 lysis with PBMC [1] [pM] | EC50 improvement compared to ΔB7-H6 wt [1] [fold] | KD improvement compared to ΔB7-H6 wt (human NKp30 (human) [2]) [fold] | x-fold KD improvement (human NKp30 (human) [2]) [fold] | x-fold Koff improvement (human NKp30 (human) [2]) [fold] | Kd (human NKp30 (human) [3]) [nM] | koff (human NKp30 (human) [3]) [s⁻¹] | kon (human NKp30 (human) [3]) [M⁻¹ s⁻¹] | EC50 of tumor cell lysis, initial screening [1] [nM] | improved potency compared to wild-type ΔB7-H6, initial screening [1] [fold] | half-maximal killing activity, initial screening [1] [pM] | A431 EC50 with NK cells (pM) [1] [pM] | A549 EC50 with NK cells (pM) [1] [pM] | enhanced potency compared to the wild-type ΔB7-H6 immunoligand, initial screening [1] [fold] |
| --- | --- | --- | --- | --- | --- | --- | --- | --- | --- | --- | --- | --- | --- | --- | --- | --- |
| ΔB7-H6_S3#14-SEED-PGLALA (bispecific antibody, part only; not given: SEED Fc chains and hu225 Fab, part only) chain, part: DLKVEMMAGGTQITPLNDNVTIFCNIFYSQPLNITTMGITWFWKSLTFDKEVKVFEFYGDHQEAFRPGAIVSPWRLKSGDASLRLPGIQLEEAGEYRCEVVVTPYKAQGTVQLEVVASPAS | 150 | 556 | 21 | 41 | 11.9 | 11.9 | 5.2 | 34.5 | 0.0322 | 933000 | – | – | – | – | – | – |
| ΔB7-H6_S3#27-SEED-PGLALA (bispecific antibody, part only; not given: SEED Fc chains and hu225 EGFR Fab, part only) chain, part: DLKVEMMAGGTQITPLNDNVTIFCNIFYSQPLNITTMGITWFWKSLTFDKEVKVFEFWGDHQEAFRPGAIVSPWRLKSGDASLRLPGIQLEEAGEYRCEVIVTPYKAQGTVQLEVVASPAS | 60.2 | 356 | 19.2 | 45 | 4.9 | 4.9 | 3 | 83 | 0.0556 | 669000 | 0.0276 | 41 | – | – | – | – |
| ΔB7-H6_S3#20-SEED-PGLALA (bispecific antibody, part only; not given: SEED Fc chains and hu225 Fab, part only) chain, part: DLKVEMMAGGTQITPLNDNVTIFCNIFYSQPLNITHMGITWFWKSLTFDKEVKVFEFWGDHQEAFRPGAIVSPWRLKSGDASLRLPGIQLEEAGEYRCEVFVTPLKAQGTVQLEVVASPAS | – | – | – | – | – | – | – | 61.6 | 0.0642 | 1.04e+06 | – | – | – | – | – | – |
| ΔB7-H6_S2#11-SEED-PGLALA (bispecific antibody, part only; not given: SEED Fc chains and hu225 Fab, part only) chain, part: DLKVEMMAGGTQITPLNDNVTIFCNIFYSQPLNITTMGITWFWKSLTFDKEVKVFEFWQDHQEAFRPGAIVSPWRLKSGDASLRLPGIQLEEAGEYRCEVVVTPLKAQGTVQLEVVASPAS | – | – | 172 | 5 | 1.7 | 1.7 | 1.5 | 234 | 0.115 | 491000 | – | – | – | – | – | – |
| ΔB7-H6_S3#4-SEED-PGLALA (bispecific antibody, part only; not given: SEED Fc chains and hu225 Fab, part only) chain, part: DLKVEMMAGGTQITPLNDNVTIFCNIFYSQPLNITIMGITWFWKSLTFDKEVKVFEFWGDHQEAFRPGAIVSPWRLKSGDASLRLPGIQLEEAGEYRCEVVVTPLKAQGTVQLEVVASPAS | – | – | – | – | – | – | – | 23.9 | 0.0149 | 621000 | – | – | – | – | – | – |
| ΔB7-H6_S3#16-SEED-PGLALA (bispecific antibody, part only; not given: SEED Fc chains and hu225 Fab, part only) chain, part: DLKVEMMAGGTQITPLNDNVTIFCNIFYSQPLNITLMGITWFWKSLTFDKEVKVFEFYGDHQEAFRPGAIVSPWRLKSGDASLRLPGIQLEEAGEYRCEVVVTPYKAQGTVQLEVVASPAS | 87.3 | 206 | 29.1 | 30 | 14.3 | 14.3 | 5.8 | 28.7 | 0.0289 | 1.01e+06 | – | – | – | – | – | – |
| ΔB7-H6_S3#31-SEED-PGLALA (bispecific antibody, part only; not given: SEED Fc chains and hu225 EGFR Fab, part only) chain, part: DLKVEMMAGGTQITPLNDNVTIFCNIFYSQPLNITIMGITWFWKSLTFDKEVKVFEFYGDHQEAFRPGAIVSPWRLKSGDASLRLPGIQLEEAGEYRCEVVVTPLKAQGTVQLEVVASPAS | 34.8 | 224 | 17.5 | 50 | 9.4 | 9.4 | 6.3 | 43.6 | 0.0269 | 616000 | – | – | 25.1 | – | – | – |
| ΔB7-H6_S3#2-SEED-PGLALA (bispecific antibody, part only; not given: SEED Fc chains and hu225 EGFR Fab, part only) chain, part: DLKVEMMAGGTQITPLNDNVTIFCNIFYSQPLNITWMGITWFWKSLTFDKEVKVFEFWGDHQEAFRPGAIVSPWRLKSGDASLRLPGIQLEEAGEYRCEVVVTPYKAQGTVQLEVVASPAS | – | – | – | – | – | – | – | 11.7 | 0.0122 | 1.04e+06 | – | – | – | – | – | – |
| ΔB7-H6_S3#32-SEED-PGLALA (bispecific antibody, part only; not given: SEED Fc chains and hu225 EGFR Fab, part only) chain, part: DLKVEMMAGGTQITPLNDNVTIFCNIFYSQPLNITEMGITWFWKSLTFDKEVKVFEFWGDHQEAFRPGAIVSPWRLKSGDASLRLPGIQLEEAGEYRCEVVVTPVKAQGTVQLEVVASPAS | – | – | – | – | – | – | – | 188 | 0.0766 | 409000 | – | – | – | – | – | – |
| ΔB7-H6_S3#25-SEED-PGLALA (bispecific antibody, part only; not given: SEED Fc chains and hu225 Fab, part only) chain, part: DLKVEMMAGGTQITPLNDNVTIFCNIFYSQPLNITWMGITWFWKSLTFDKEVKVFEFYGDHQEAFRPGAIVSPWRLKSGDASLRLPGIQLEEAGEYRCEVVVTPYKAQGTVQLEVVASPAS | 37.8 | 135 | 9.9 | 88 | 6.3 | 6.3 | 3.5 | 65.2 | 0.0486 | 745000 | – | – | 6 | 4.25 | 34.6 | 187 |
